Results from PMC5778036.

Target: CCR5 expressed on the surface of pancreatic cancer cells (human (endogenous in AsPC-1, BxPC-3, MIA PaCa-2)) (UniProt P51681)
Sequence of UniProt P51681 (P51681 whole entry): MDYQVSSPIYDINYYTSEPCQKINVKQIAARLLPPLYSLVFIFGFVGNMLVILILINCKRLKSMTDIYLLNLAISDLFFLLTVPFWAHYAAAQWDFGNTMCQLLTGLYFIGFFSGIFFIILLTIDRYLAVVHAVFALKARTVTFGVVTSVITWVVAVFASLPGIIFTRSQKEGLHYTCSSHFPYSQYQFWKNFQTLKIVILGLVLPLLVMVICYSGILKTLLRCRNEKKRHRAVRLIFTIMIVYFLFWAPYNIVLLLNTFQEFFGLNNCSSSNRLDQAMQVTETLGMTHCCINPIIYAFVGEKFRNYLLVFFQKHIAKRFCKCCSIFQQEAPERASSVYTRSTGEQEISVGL

- CCR5 mRNA (qRT-PCR) in AsPC-1 cells in presence of CCL5, fold against untreated; decreased by maraviroc: 11 fold
- CCR5 mRNA (qRT-PCR) in BxPC-3 cells in presence of CCL5, fold against untreated; decreased by maraviroc: 7 fold
- CCR5 mRNA (qRT-PCR) in MIA PaCa-2 cells in presence of CCL5, fold against untreated; decreased by maraviroc: 4 fold
Substance: CCL5 (CC chemokine ligand 5) recombinant protein (from UniProt P13501 24-91)
